{"source": "patent US20070092940A1", "molecular_target": "rabbit albumin (rabbit) (UniProt P49065)", "sequence (P49065 25-608 limits assumed)": "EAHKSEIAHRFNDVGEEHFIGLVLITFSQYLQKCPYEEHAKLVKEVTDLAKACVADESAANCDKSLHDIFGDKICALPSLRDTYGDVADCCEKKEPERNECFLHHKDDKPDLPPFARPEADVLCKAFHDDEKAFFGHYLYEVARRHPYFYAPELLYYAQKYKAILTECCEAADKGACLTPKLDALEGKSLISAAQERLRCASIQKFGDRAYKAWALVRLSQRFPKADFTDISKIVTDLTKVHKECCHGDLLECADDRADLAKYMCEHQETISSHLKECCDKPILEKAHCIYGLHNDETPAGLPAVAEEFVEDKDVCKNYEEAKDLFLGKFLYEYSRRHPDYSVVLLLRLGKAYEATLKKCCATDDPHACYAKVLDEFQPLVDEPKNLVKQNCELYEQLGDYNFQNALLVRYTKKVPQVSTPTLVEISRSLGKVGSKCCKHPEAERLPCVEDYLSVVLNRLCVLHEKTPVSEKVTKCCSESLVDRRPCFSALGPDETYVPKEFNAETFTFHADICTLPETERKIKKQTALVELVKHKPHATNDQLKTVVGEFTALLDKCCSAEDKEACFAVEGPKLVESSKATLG", "assay": "BIAcore kinetic analysis", "data": [{"substance": "ABP-hu4D5Fabv8 wild type", "values": [{"measurement": "Kd", "value": 124, "unit": "nM"}]}]}
